{"source": "IntAct's records for PubMed 17392788", "parents": {"B1": {"name": "\"Lethal(2) giant larvae protein homolog SRO7\" (Saccharomyces cerevisiae), Q12038 (parent)", "chain": "MFGSKRLKNVKEAFKSLKGQNSETPIENSKASFKSKNSKTSTISKDAKSSSSLKIPISSNNKNKIFSLAETNKYGMSSKPIAAAFDFTQNLLAIATVTGEVHIYGQQQVEVVIKLEDRSAIKEMRFVKGIYLVVINAKDTVYVLSLYSQKVLTTVFVPGKITSIDTDASLDWMLIGLQNGSMIVYDIDRDQLSSFKLDNLQKSSFFPAARLSPIVSIQWNPRDIGTVLISYEYVTLTYSLVENEIKQSFIYELPPFAPGGDFSEKTNEKRTPKVIQSLYHPNSLHIITIHEDNSLVFWDANSGHMIMARTVFETEINVPQPDYIRDSSTNAAKISKVYWMCENNPEYTSLLISHKSISRGDNQSLTMIDLGYTPRYSITSYEGMKNYYANPKQMKIFPLPTNVPIVNILPIPRQSPYFAGCHNPGLILLILGNGEIETMLYPSGIFTDKASLFPQNLSWLRPLATTSMAASVPNKLWLGALSAAQNKDYLLKGGVRTKRQKLPAEYGTAFITGHSNGSVRIYDASHGDIQDNASFEVNLSRTLNKAKELAVDKISFAAETLELAVSIETGDVVLFKYEVNQFYSVENRPESGDLEMNFRRFSLNNTNGVLVDVRDRAPTGVRQGFMPSTAVHANKGKTSAINNSNIGFVGIAYAAGSLMLIDRRGPAIIYMENIREISGAQSACVTCIEFVIMEYGDDGYSSILMVCGTDMGEVITYKILPASGGKFDVQLMDITNVTSKGPIHKIDAFSKETKSSCLATIPKMQNLSKGLCIPGIVLITGFDDIRLITLGKSKSTHKGFKYPLAATGLSYISTVEKNNDRKNLTVIITLEINGHLRVFTIPDFKEQMSEHIPFPIAAKYITESSVLRNGDIAIRVSEFQASLFSTVKEQDTLAPVSDTLYINGIRIPYRPQVNSLQWARGTVYCTPAQLNELLGGVNRPASKYKESIIAEGSFSERSSDDNNANHPEHQYTKPTRKGRNSSYGVLRNVSRAVETRWDAVEDRFNDYATAMGETMNEAVEQTGKDVMKGALGF"}}}
{"variants_of": "B1", "conditions": "with sec9_yeast SEC9, P40357"}
{"variant": "Y700A", "effect of a mutation on the interaction": "disrupting interaction strength"}
{"variant": "M764A", "effect of a mutation on the interaction": "decreasing interaction strength"}
{"variant": "P721A", "effect of a mutation on the interaction": "disrupting interaction strength"}
{"variant": "R664A", "effect of a mutation on the interaction": "decreasing interaction strength"}
{"variant": "E562A", "effect of a mutation on the interaction": "decreasing interaction strength"}
